As a reminder, the Km is the substrate concentration at which the rate is half of its maximum. The kcat is the maximal rate divided by the concentration of active sites. By kcat/Km is commonly meant the turnover number divided by the Michaelis constant.

Common to all, as to assay: purified protein
Substrate in data set [1]: O=C(O)CCC(=O)C(=O)O
It counts as biochemical, Microcystis aeruginosa. The settings on record: 1 mM ThDP, 2 mM Mg2+, 100 mM HEPES pH 7.0, 10% glycerol, 25 °C.

Substrate in data set [2]: Cc1ncc(C[n+]2csc(CCO[P@](=O)(O)OP(=O)(O)O)c2C)c(N)n1
The settings on record: 10 mM α-ketoglutarate, 2 mM Mg2+, 100 mM HEPES pH 7.0, 10% glycerol, 25 °C; half-saturation of activity; pH 7.0; 25.0 °C; varied: cofactor.

Substrate in data set [3]: Cc1ncc(C[n+]2csc(CCO[P@](=O)(O)OP(=O)(O)O)c2C)c(N)n1
Type of data set: biochemical, Microcystis aeruginosa. The settings on record: 10 mM α-ketoglutarate, 2 mM Mg2+, 100 mM HEPES pH 7.0, 10% glycerol, 25 °C, varied: cofactor.

B1: MaKGD (Microcystis aeruginosa NIES-843) (protein)
chain: MGELNTAELLVKCLENEGVEYIFGLPGEENLDVLEALKNSSIKFITTRHEQGAAFMADVYGRLTGKAGVCLSTLGPGATNLMTGVADANLDGAPLVAITGQVGTDRMHIESHQYLDLVAMFAPVTKWNKQIVRPGITPEVVRRAFKTAQSEKPGAVHIDLPENIAAMAADGHPLPLDSQEKVYASYRTLNMAAAVISKAKNPLILAGNGAIRANASEALTEFATALNIPVANTFMGKGVIPYTHPLALWAVGLQQRDLISCAFERSDLIIAVGYDLIEYSPKKWNPDGKLPIIHIGMTPAEIDSSYAPVVEVVGDITDSLIDILKRADRQNKPTPVTAGLKTEIRADYETYANDTGFPIKPQKLIYDLRQVMGPEDIAICDVGAHKMWMARQYHSDCPNTCIISNGFAAMGIAIPGAIAAKLVYPNKRIVAVTGDGGFMMNCQELETALRVGTPFVTLIFNDGGYGLIEWKQLNYFGTSSFIKFGNPDFVKFAESMGLKGYRVESTQDLIPTLEEAFRQEVPTVIDVPVDYGENLRLSQKSGDLSCQIWE
notes: full length, pET28a (NdeI/XhoI), E. coli BL21(DE3) with chaperone plasmid pTf16, imidazole-eluted; codon-optimised gene
As for B1, in the data set “purified protein [1]”, the Km amounted to 870 ± 230 µM, the kcat turned out to be 7.8 ± 0.5 s⁻¹ and the kcat/Km amounted to 8970 M⁻¹ s⁻¹. In “purified protein [2]”, the K0.5 was 0.0056 ± 0.0007 mM.

B2: MaKGD (Microcystis aeruginosa NIES-843; D462E) (protein)
chain: MGELNTAELLVKCLENEGVEYIFGLPGEENLDVLEALKNSSIKFITTRHEQGAAFMADVYGRLTGKAGVCLSTLGPGATNLMTGVADANLDGAPLVAITGQVGTDRMHIESHQYLDLVAMFAPVTKWNKQIVRPGITPEVVRRAFKTAQSEKPGAVHIDLPENIAAMAADGHPLPLDSQEKVYASYRTLNMAAAVISKAKNPLILAGNGAIRANASEALTEFATALNIPVANTFMGKGVIPYTHPLALWAVGLQQRDLISCAFERSDLIIAVGYDLIEYSPKKWNPDGKLPIIHIGMTPAEIDSSYAPVVEVVGDITDSLIDILKRADRQNKPTPVTAGLKTEIRADYETYANDTGFPIKPQKLIYDLRQVMGPEDIAICDVGAHKMWMARQYHSDCPNTCIISNGFAAMGIAIPGAIAAKLVYPNKRIVAVTGDGGFMMNCQELETALRVGTPFVTLIFNEGGYGLIEWKQLNYFGTSSFIKFGNPDFVKFAESMGLKGYRVESTQDLIPTLEEAFRQEVPTVIDVPVDYGENLRLSQKSGDLSCQIWE
notes: as for B1
Turning to B2, in “purified protein [1]”, the Km turned out to be 2380 ± 630 µM and the kcat came out at 9 ± 0.47 s⁻¹. Also, the K0.5 in the data set “purified protein [3]” was 0.761 ± 0.143 mM.

B3: MaKGD (Microcystis aeruginosa NIES-843; L467A) (protein)
chain: MGELNTAELLVKCLENEGVEYIFGLPGEENLDVLEALKNSSIKFITTRHEQGAAFMADVYGRLTGKAGVCLSTLGPGATNLMTGVADANLDGAPLVAITGQVGTDRMHIESHQYLDLVAMFAPVTKWNKQIVRPGITPEVVRRAFKTAQSEKPGAVHIDLPENIAAMAADGHPLPLDSQEKVYASYRTLNMAAAVISKAKNPLILAGNGAIRANASEALTEFATALNIPVANTFMGKGVIPYTHPLALWAVGLQQRDLISCAFERSDLIIAVGYDLIEYSPKKWNPDGKLPIIHIGMTPAEIDSSYAPVVEVVGDITDSLIDILKRADRQNKPTPVTAGLKTEIRADYETYANDTGFPIKPQKLIYDLRQVMGPEDIAICDVGAHKMWMARQYHSDCPNTCIISNGFAAMGIAIPGAIAAKLVYPNKRIVAVTGDGGFMMNCQELETALRVGTPFVTLIFNDGGYGAIEWKQLNYFGTSSFIKFGNPDFVKFAESMGLKGYRVESTQDLIPTLEEAFRQEVPTVIDVPVDYGENLRLSQKSGDLSCQIWE
notes: as for B1
With B3, in “purified protein [1]”, the Km worked out at 1220 ± 510 µM and the kcat came to 2.7 ± 0.32 s⁻¹. Also, the K0.5 in the data set “purified protein [3]” is recorded as 0.026 ± 0.004 mM.

B4: MaKGD (Microcystis aeruginosa NIES-843; D462N) (protein)
chain: MGELNTAELLVKCLENEGVEYIFGLPGEENLDVLEALKNSSIKFITTRHEQGAAFMADVYGRLTGKAGVCLSTLGPGATNLMTGVADANLDGAPLVAITGQVGTDRMHIESHQYLDLVAMFAPVTKWNKQIVRPGITPEVVRRAFKTAQSEKPGAVHIDLPENIAAMAADGHPLPLDSQEKVYASYRTLNMAAAVISKAKNPLILAGNGAIRANASEALTEFATALNIPVANTFMGKGVIPYTHPLALWAVGLQQRDLISCAFERSDLIIAVGYDLIEYSPKKWNPDGKLPIIHIGMTPAEIDSSYAPVVEVVGDITDSLIDILKRADRQNKPTPVTAGLKTEIRADYETYANDTGFPIKPQKLIYDLRQVMGPEDIAICDVGAHKMWMARQYHSDCPNTCIISNGFAAMGIAIPGAIAAKLVYPNKRIVAVTGDGGFMMNCQELETALRVGTPFVTLIFNNGGYGLIEWKQLNYFGTSSFIKFGNPDFVKFAESMGLKGYRVESTQDLIPTLEEAFRQEVPTVIDVPVDYGENLRLSQKSGDLSCQIWE
notes: as for B1
For B4, in the data set “purified protein [1]”, the Km came to 3920 ± 450 µM and the kcat is 1.5 ± 0.36 s⁻¹. For the same protein, the K0.5 in “purified protein [3]” is reported as 0.008 ± 0.001 mM.

B5: MaKGD (Microcystis aeruginosa NIES-843; D435E) (protein)
chain: MGELNTAELLVKCLENEGVEYIFGLPGEENLDVLEALKNSSIKFITTRHEQGAAFMADVYGRLTGKAGVCLSTLGPGATNLMTGVADANLDGAPLVAITGQVGTDRMHIESHQYLDLVAMFAPVTKWNKQIVRPGITPEVVRRAFKTAQSEKPGAVHIDLPENIAAMAADGHPLPLDSQEKVYASYRTLNMAAAVISKAKNPLILAGNGAIRANASEALTEFATALNIPVANTFMGKGVIPYTHPLALWAVGLQQRDLISCAFERSDLIIAVGYDLIEYSPKKWNPDGKLPIIHIGMTPAEIDSSYAPVVEVVGDITDSLIDILKRADRQNKPTPVTAGLKTEIRADYETYANDTGFPIKPQKLIYDLRQVMGPEDIAICDVGAHKMWMARQYHSDCPNTCIISNGFAAMGIAIPGAIAAKLVYPNKRIVAVTGEGGFMMNCQELETALRVGTPFVTLIFNDGGYGLIEWKQLNYFGTSSFIKFGNPDFVKFAESMGLKGYRVESTQDLIPTLEEAFRQEVPTVIDVPVDYGENLRLSQKSGDLSCQIWE
notes: as for B1
Regarding B5, the K0.5 in the data set “purified protein [3]” is 0.041 ± 0.003 mM.

B6: MaKGD (Microcystis aeruginosa NIES-843; M410A) (protein)
chain: MGELNTAELLVKCLENEGVEYIFGLPGEENLDVLEALKNSSIKFITTRHEQGAAFMADVYGRLTGKAGVCLSTLGPGATNLMTGVADANLDGAPLVAITGQVGTDRMHIESHQYLDLVAMFAPVTKWNKQIVRPGITPEVVRRAFKTAQSEKPGAVHIDLPENIAAMAADGHPLPLDSQEKVYASYRTLNMAAAVISKAKNPLILAGNGAIRANASEALTEFATALNIPVANTFMGKGVIPYTHPLALWAVGLQQRDLISCAFERSDLIIAVGYDLIEYSPKKWNPDGKLPIIHIGMTPAEIDSSYAPVVEVVGDITDSLIDILKRADRQNKPTPVTAGLKTEIRADYETYANDTGFPIKPQKLIYDLRQVMGPEDIAICDVGAHKMWMARQYHSDCPNTCIISNGFAAAGIAIPGAIAAKLVYPNKRIVAVTGDGGFMMNCQELETALRVGTPFVTLIFNDGGYGLIEWKQLNYFGTSSFIKFGNPDFVKFAESMGLKGYRVESTQDLIPTLEEAFRQEVPTVIDVPVDYGENLRLSQKSGDLSCQIWE
notes: as for B1
As for B6, in the data set “purified protein [3]”, the K0.5 came to 0.046 ± 0.010 mM.

B7: MaKGD (Microcystis aeruginosa NIES-843; Y465A) (protein)
chain: MGELNTAELLVKCLENEGVEYIFGLPGEENLDVLEALKNSSIKFITTRHEQGAAFMADVYGRLTGKAGVCLSTLGPGATNLMTGVADANLDGAPLVAITGQVGTDRMHIESHQYLDLVAMFAPVTKWNKQIVRPGITPEVVRRAFKTAQSEKPGAVHIDLPENIAAMAADGHPLPLDSQEKVYASYRTLNMAAAVISKAKNPLILAGNGAIRANASEALTEFATALNIPVANTFMGKGVIPYTHPLALWAVGLQQRDLISCAFERSDLIIAVGYDLIEYSPKKWNPDGKLPIIHIGMTPAEIDSSYAPVVEVVGDITDSLIDILKRADRQNKPTPVTAGLKTEIRADYETYANDTGFPIKPQKLIYDLRQVMGPEDIAICDVGAHKMWMARQYHSDCPNTCIISNGFAAMGIAIPGAIAAKLVYPNKRIVAVTGDGGFMMNCQELETALRVGTPFVTLIFNDGGAGLIEWKQLNYFGTSSFIKFGNPDFVKFAESMGLKGYRVESTQDLIPTLEEAFRQEVPTVIDVPVDYGENLRLSQKSGDLSCQIWE
notes: as for B1
As to B7, in “purified protein [1]”, the Km stood at 1480 ± 270 µM and the kcat is 1.23 ± 0.25 s⁻¹. Besides, the K0.5 in “purified protein [3]” is 0.090 ± 0.021 mM.

B8: MiKGD (Microcystis aeruginosa NIES-4325) (protein)
chain: MGELNTAELLVKCLENEGVEYIFGLPGEENLDVLEALKNSSIKFITTRHEQGAAFMADVYGRLTGKAGVCLSTLGPGATNLMTGVADANLDGAPLVAITGQVGTDRMHIESHQYLDLVAMFAPVTKWNKQIVRPGITPEVVRRAFKTAQSEKPGAVHIDLPENIAAMPADGHPLPLDSQEKVYASYRTLNMAAAVISKAKNPLILAGNGAIRANASEALTEFATALNIPVANTFMGKGVIPYTHPLALWAVGLQQRDLISCAFDRSDLIIAVGYDLIEYSPKKWNPEGKLPIIHIGMTPAEIDSSYAPVVEVVGDITDSLIDILKRADRQNKPTPVTAGLKTEIRADYETYANDTGFPIKPQKLIYDLRQVMGPEDIVISDVGAHKMWMARQYHSDCPNTCIISNGFAAMGIAIPGAIAAKLVHPDKRVVAVTGDGGFMMNCQELETALRVGTPFVTLIFNDGGYGLIEWKQFNYFGTSSFIKFGNPDFVKFAESMGLKGYRVESAQDLIPILEEAFQQEVPTVIDVPVDYGENLRLSQKSGDLSCQIWE
notes: full length, pET28a (NdeI/XhoI), E. coli BL21(DE3) with chaperone plasmid pTf16; codon-optimised gene
Regarding B8, in the data set “purified protein [1]”, the Km amounted to 4470 ± 630 µM, the kcat came to 4.33 ± 0.37 s⁻¹ and the catalytic efficiency (kcat/Km) was determined as 970 M⁻¹ s⁻¹. Moreover, the K0.5 in “purified protein [3]” (half-saturation of activity) is recorded as 0.026 ± 0.006 mM.

Source of the values: PMC10418658, “Biochemical and Structural Insights into a Thiamine Diphosphate-Dependent α-Ketoglutarate Decarboxylase from Cyanobacterium Microcystis aeruginosa NIES-843” (International Journal of Molecular Sciences, 2023).
